Measurements taken from patent US5985583, “Cloning and expression of gonadotropin-releasing hormone receptor” (Mount Sinai School of Medicine of The City University of …, dated 1999).
Non-standard residues stand in square brackets, D forms with d. No end group written: not given here. d(pGlu) = O=C1CC[C@H](C(=O)O)N1; NMeL = CN[C@@H](CC(C)C)C(=O)O

Tests used:
[1] = molecular target: human gonadotropin-releasing hormone receptor (GnRH-R), clone LC27-4 (human)
[2] = molecular target: human gonadotropin-releasing hormone receptor (GnRH-R), clone LC27-4 (human); test: Kd derived by the filing from the IC50 of inhibition of GnRH-stimulated inositol phosphate production in COS-1 cells expressing the human GnRH-R
[3] = molecular target: T1, mouse gonadotropin-releasing hormone receptor (GnRH-R), clone WZ25 (mouse); test: displacement of 125I-GnRH-A by GnRH, membranes of WZ25 RNA-injected oocytes
T1 chain: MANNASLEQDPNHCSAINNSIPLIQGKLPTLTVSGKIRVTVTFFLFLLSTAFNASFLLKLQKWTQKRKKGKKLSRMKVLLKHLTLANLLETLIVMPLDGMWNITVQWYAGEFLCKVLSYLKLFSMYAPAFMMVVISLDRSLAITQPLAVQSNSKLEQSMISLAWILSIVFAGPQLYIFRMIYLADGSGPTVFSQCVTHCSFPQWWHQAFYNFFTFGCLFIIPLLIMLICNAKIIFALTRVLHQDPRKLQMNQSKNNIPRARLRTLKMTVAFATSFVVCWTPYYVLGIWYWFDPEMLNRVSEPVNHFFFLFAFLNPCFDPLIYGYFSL
Method: (§1) For membrane preparation, 500 oocytes were each injected with 2.5 ng synthetic WZ25 RNA. After 48 hours, oocyte membranes were prepared as described (Kobilka et al., 1987, J. Biol. Chem. 262: 15796–15802) and resuspended in binding buffer containing 10 mM HEPES, 1 mM EDTA, and 0.1% bovine serum albumin to give a final concentration of 20 oocytes/ml.
(§2) To further characterize the receptor encoded by this cDNA clone, radioligand binding assays were performed on membranes purified from oocytes injected with the WZ25 RNA transcript.

[4] = molecular target: T2, human gonadotropin-releasing hormone receptor (GnRH-R), clone LC27-4 (human); test: displacement of 125I-GnRH-A, membranes of COS-1 cells transfected with the human GnRH-R
T2 chain: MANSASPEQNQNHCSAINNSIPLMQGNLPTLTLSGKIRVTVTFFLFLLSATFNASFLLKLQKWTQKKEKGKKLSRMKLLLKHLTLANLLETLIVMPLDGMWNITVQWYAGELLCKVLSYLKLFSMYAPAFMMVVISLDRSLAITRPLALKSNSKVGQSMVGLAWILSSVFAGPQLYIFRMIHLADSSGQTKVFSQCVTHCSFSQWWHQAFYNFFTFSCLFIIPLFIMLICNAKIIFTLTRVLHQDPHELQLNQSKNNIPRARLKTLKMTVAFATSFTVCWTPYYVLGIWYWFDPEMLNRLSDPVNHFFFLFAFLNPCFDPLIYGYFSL
Method: (§3) For studies on inositol phosphate production, 1.8 ×10^5 cells/well (12-well plates) were transfected with 1.5 μg DNA. Cells were assayed 48 hours after transfection.
Cell membranes were prepared from transfected cells with a single centrifugation step as described for rat pituitaries (Millar et al., 1989, J. Biol. Chem. 264:21007–21013).

[5] = molecular target: T1, mouse gonadotropin-releasing hormone …; test: displacement of 125I-GnRH-A by GnRH-A, αT3-1 cell membranes (endogenous mouse receptor)
[6] = molecular target: T1, mouse gonadotropin-releasing hormone …; test: displacement of 125I-GnRH-A by GnRH-A, membranes of WZ25 RNA-injected oocytes
Method: as §1, §2

[7] = molecular target: T2, human gonadotropin-releasing hormone …; test: Kd derived by the filing from the IC50 of inhibition of GnRH-stimulated inositol phosphate production in COS-1 cells expressing the human GnRH-R
Method: as §3

## gonadotropin-releasing hormone (GnRH) (from UniProt P01148) (peptide)
[1]
  EC50 of inositol phosphate production in COS-1 cells transfected with pSV2A-human GnRH-R: 3 nM
  inositol phosphate production in COS-1 cells transfected with pSV2A-human GnRH-R: 8 fold

## antagonist 13: [Ac-D-NaI1,D-α-4-ClPhe2, D-Pal3,D-Arg6, D-Ala10]GnRH (from UniProt P01148) (peptide)
[2]
  Kd: 0.21 nM
[1]
  IC50 of inhibition of GnRH-stimulated (10-8 M) inositol phosphate production in COS-1 cells transfected with pSV2A-human GnRH-R: 6.7e-09 M

B1: gonadotropin-releasing hormone (GnRH) (peptide)
peptide: QHWSYGLRPG
[3]
  binding result: binds

B2: [D-Ala6, NαMe-Leu7, Pro9-NHEt]GnRH (GnRH-A) (peptide)
peptide: QHWSY[dA][NMeL]RP-NHEt
modifications: ends and bridges not checked; also: 125I label on the tracer form
[4]
  Kd: 0.97 nM
[5]
  Kd: 2.9 nM
[6]
  Kd: 4.5 nM

B3: antagonist 5: [D-pGlu1,D-Phe2,D-Trp3,6]GnRH (peptide)
peptide: [d(pGlu)][dF][dW]SY[dW]LRPG
modifications: ends and bridges not checked
[4]
  Kd: 8.4 nM
[7]
  Kd: 3.6 nM
[1]
  IC50 of inhibition of GnRH-stimulated (10-8 M) inositol phosphate production in COS-1 cells transfected with pSV2A-human GnRH-R: 1.05e-07 M
